Reference: publication PMC9278102
pKd: −log10 of the molar value.

How the values were obtained:
hACE2-fc dimer (human) = hACE2-fc dimer (human) (UniProt Q9BYF1); test: SPR
[1] = molecular target: SARS-CoV-2 S1-S2-His-T4 trimer (SARS-CoV-2 (wt; Wuhan strain)); test: SEC

UniProt Q9BYF1, sequence (Q9BYF1 18-740): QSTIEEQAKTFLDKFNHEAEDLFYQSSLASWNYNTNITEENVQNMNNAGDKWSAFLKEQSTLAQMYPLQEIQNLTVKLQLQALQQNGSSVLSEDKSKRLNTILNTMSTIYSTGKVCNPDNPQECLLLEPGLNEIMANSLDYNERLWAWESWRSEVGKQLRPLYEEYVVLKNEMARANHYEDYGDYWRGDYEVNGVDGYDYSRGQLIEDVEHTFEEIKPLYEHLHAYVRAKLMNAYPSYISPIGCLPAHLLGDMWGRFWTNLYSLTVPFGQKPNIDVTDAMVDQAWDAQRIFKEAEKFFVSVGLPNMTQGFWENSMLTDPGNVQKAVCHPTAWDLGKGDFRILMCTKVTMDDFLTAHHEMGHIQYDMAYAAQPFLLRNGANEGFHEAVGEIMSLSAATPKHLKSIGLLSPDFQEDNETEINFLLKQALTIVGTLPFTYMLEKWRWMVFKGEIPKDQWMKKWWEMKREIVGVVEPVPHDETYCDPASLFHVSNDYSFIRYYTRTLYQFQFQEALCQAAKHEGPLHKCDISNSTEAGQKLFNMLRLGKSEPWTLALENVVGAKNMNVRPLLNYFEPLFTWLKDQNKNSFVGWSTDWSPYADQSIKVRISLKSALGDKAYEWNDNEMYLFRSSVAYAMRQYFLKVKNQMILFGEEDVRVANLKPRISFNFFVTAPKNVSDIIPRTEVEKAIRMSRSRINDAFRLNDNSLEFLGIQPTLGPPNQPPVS

Substance: SARS-CoV-2 S1-S2-His-T4 trimer (domain or fragment)
- KD1 (two-state fit, primary binding) (hACE2-fc dimer (human)): 1.8 nM
- pKd (hACE2-fc dimer (human)): 10.40
- ka1 (two-state fit, primary binding) (hACE2-fc dimer (human)): 780000 M⁻¹ s⁻¹
- ka2 (two-state fit, secondary transition) (hACE2-fc dimer (human)): 0.011 M⁻¹ s⁻¹
- kd1 (two-state fit, primary binding) (hACE2-fc dimer (human)): 0.0014 s⁻¹
- kd2 (two-state fit, secondary transition) (hACE2-fc dimer (human)): 0.00024 s⁻¹
- stoichiometry N [1]: 3
